Measurements reported in patent US20230174571A1, “METHOD OF TREATING SHIP1-MEDIATED DISEASES USING PELOROL DERIVATIVES” (Zebrapeutics Inc., priority 2020, published 2023).

Columns and labels:
SHIP1 and STAT3 = molecular target: T1, SHIP1 and STAT3 (Mus musculus, UniProt Q9ES52); test: In vitro pull down assay of His6-SHIP1 with STAT3; assay type: cell-based; settings: J17 His6-SHIP1 cells; 100 ng/ml IL10 or IL6, 20 μM compound I-2; 5 minutes
T1 construct: expressed in transfected cells; host or cells: J17 (SHIP1-/- mouse BMDM-derived line), lentiviral transduction
T1 sequence (Q9ES52 1-1191): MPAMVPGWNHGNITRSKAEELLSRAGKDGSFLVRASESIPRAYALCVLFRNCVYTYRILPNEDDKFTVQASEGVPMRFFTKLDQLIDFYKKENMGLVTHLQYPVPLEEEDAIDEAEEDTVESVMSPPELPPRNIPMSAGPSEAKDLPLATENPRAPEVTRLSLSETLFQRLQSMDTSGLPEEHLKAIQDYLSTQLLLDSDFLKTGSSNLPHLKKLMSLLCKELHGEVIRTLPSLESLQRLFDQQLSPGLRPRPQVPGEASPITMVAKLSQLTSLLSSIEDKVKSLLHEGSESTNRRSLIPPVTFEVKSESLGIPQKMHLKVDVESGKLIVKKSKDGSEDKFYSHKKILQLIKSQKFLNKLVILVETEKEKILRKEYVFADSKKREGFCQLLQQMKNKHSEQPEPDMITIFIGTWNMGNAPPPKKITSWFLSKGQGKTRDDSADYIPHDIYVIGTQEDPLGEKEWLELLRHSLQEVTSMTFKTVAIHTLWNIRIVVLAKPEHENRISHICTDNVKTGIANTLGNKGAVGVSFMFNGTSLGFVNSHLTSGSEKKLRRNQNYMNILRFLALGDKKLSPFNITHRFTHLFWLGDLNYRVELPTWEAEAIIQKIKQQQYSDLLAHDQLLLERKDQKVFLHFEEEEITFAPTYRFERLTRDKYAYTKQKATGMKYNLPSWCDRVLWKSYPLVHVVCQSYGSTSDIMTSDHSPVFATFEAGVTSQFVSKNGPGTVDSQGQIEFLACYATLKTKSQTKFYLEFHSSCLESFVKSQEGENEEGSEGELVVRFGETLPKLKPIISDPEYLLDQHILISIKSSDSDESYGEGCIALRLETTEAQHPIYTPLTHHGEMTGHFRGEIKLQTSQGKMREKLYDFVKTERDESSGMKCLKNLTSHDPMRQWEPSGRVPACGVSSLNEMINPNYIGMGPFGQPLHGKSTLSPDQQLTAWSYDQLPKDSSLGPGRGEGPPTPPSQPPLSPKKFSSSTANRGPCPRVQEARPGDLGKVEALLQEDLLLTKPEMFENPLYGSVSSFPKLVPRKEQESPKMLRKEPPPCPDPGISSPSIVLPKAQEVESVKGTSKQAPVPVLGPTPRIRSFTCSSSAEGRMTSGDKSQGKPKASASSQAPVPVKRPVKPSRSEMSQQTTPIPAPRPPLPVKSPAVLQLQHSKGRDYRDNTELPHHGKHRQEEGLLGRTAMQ
Method: In vitro pull down assay. J17 His6-SHIP1 and Y190F cells were seeded at 2×10^6 cells per well in a 6-well plate. After overnight incubation, fresh cell media was added for 30 minutes before stimulation with 100 ng/ml IL10, […] or 20 μM compound I-2 for 5 minutes. Cells were lysed with Protein Solubilization Buffer (PSB, 50 mM Hepes, pH 7.5, […], 10 mM Na Pyrophosphate, 2 mM NaVO4, 2 mM Na Molybdate, 2 mM EDTA) containing 1% octylglucoside, 0.01 M imidazole, and protease inhibitor cocktail (Roche Diagnostics, Laval, QC) for 30 minutes at 4° C. and centrifuged at 10000 rpm for 15 minutes. EDTA resistant Ni beads (Roche Diagnostics, Laval, QC) were added to supernatants and the mixture incubated at 4° C. for 1 hour before spinning down and washing of beads three times with 0.1% octylglucoside wash buffer in PSB. Bead samples and starting material cell lysates were separated on a 7.5% SDS-PAGE gel.
Immunoblotting. Protein lysates were separated on SDS-PAGE gels and transferred onto polyvinylidene fluoride (PVDF) membrane (Millipore, Etobicoke, ON). Membranes were blocked and probed, where appropriate, with the following primary antibodies overnight: SHIP1 (P1C1) (Santa Cruz Biotechnology), pSHIP1 (Y190) (Kinexus), STAT3 (9D8) (ThermoFisher Scientific), pSTAT3 (Y705) (Thermo Fisher Scientific), STAT1 (BD Transduction Laboratories), pSTAT1 (Y701) (Upstate Biotechnology), GAPDH and actin (Sigma-Aldrich). Membranes were developed with either Alexa Fluor® 660 anti-mouse IgG or Alexa Fluor® 680 anti-rabbit IgG antibodies (Thermo Fisher Scientific) and imaged using a LI-COR Odyssey Imager.

[1] = molecular target: T2, Clover-SHIP1 and mRuby2-STAT3 (Mus musculus, UniProt Q9ES52); test: Acceptor photobleaching FRET analysis; assay type: cell-based; settings: J17 SHIP1−/− cells expressing Clover-SHIP1/mRuby2-STAT3; 1 minute; 100 ng/ml IL10, IL6 or 20 μM I-2
T2 construct: expressed in transfected cells; host or cells: J17 (SHIP1-/- mouse macrophage line), lentiviral transduction
T2 sequence (P42227 whole entry partner, one chain of several): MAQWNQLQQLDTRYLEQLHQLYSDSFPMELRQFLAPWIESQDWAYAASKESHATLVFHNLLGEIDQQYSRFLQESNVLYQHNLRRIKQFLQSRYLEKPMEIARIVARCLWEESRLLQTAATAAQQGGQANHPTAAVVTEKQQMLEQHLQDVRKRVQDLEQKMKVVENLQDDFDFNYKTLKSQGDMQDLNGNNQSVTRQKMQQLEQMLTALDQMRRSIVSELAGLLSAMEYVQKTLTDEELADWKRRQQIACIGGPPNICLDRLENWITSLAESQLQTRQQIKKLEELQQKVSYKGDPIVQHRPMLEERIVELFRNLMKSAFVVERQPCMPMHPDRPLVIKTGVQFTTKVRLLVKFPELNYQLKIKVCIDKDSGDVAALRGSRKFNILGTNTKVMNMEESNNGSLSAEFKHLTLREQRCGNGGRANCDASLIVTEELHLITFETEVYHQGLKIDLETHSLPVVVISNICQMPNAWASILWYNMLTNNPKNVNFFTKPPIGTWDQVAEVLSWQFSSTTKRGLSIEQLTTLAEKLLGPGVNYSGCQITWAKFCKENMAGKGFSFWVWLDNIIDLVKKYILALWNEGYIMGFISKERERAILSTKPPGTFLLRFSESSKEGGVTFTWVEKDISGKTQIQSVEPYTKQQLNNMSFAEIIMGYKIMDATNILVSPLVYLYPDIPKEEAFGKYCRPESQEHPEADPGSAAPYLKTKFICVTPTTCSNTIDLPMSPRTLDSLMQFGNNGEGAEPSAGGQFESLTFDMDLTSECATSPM
Method: Acceptor Photobleaching FRET analysis. J17 cells expressing Clover-SHIP1 and/or mRuby2-STAT3 were seeded at 50×10^4 cells per well in 8-well Ibidi p-Slides (Ibidi GmbH, Martinsried, Germany). After overnight incubation, cells were serum-starved with Mac media containing 1% serum for 3 hours before media replacement with Leibovitz's (L-15) media (Invitrogen, Burlington, ON) supplemented with 1% serum, 10 μM β-mercaptoethanol, 150 μM monothioglycolate and 1 mM L-glutamine for confocal microscopy imaging. Cells were imaged on a Leica SP8X on DMi8 confocal microscope system with a 63×/1.3 Gly HC PL APO CS2 objective using a white light laser line with 488 nm for donor excitement and 555 nm for acceptor excitement. Photobleaching FRET analysis was performed by measuring Clover-SHIP1 donor fluorescence intensity before and after bleaching the acceptor, mRuby2-STAT3, within a field of cells ‘region of interest’ (ROI), at 100% laser intensity for 60 frames. Acceptor photobleaching was performed first in resting cells then at 1 minute (±5 seconds) following ‘mock’ stimulation with L-15 media, or L-15 media containing 100 ng/ml IL10, IL6 or 20 μM compound I-2. Donor and acceptor fluorescence intensity of individual cells within the bleached ROI was quantified before and after bleaching. Percentage FRET efficiency was calculated as % FRETeff=100×(Dpost−Dpre)/Dpost where Dpre and Dpost represent Clover-SHIP1 donor fluorescence intensity before and after bleaching, respectively.

PAC2-K681A = molecular target: T3, PAC2-K681A (Mus musculus, UniProt Q9ES52, K681A); test: Biolayer interferometry, PAC2-K681A; assay type: binding; settings: 20 μM analyte; K681A vs wild-type PAC2
T3 construct: PAC1 and PAC2 consists of phosphatase and C2 domain (residues aa 402-861 and aa 402-857 respectively); made in house; host or cells: E. coli BL21 co-transformed with pBirAcm
T3 sequence (Q9ES52 402-857 K681A): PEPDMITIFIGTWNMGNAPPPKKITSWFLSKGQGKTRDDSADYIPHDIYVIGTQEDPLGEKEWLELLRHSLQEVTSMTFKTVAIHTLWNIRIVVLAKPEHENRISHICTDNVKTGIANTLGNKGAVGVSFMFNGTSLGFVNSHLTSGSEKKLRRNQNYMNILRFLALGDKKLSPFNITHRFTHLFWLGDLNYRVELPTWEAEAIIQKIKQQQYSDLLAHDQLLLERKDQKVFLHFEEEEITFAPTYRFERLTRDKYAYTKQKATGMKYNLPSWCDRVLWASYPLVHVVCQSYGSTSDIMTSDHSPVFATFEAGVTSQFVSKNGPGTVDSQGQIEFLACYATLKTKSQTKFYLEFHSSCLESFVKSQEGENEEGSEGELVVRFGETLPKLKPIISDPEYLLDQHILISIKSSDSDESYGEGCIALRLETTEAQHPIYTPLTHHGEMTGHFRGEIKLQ
Method: Expression of PAC2-Avi tag for Biolayer interferometry. A sequence corresponding to Avi-tag ([…]) was added to the c-terminal end of the PAC2 in LIC-HMT-PAC2 expressing vector via standard restriction digestion and ligation. The LIC-HMT-PAC2-Avi expressing vector was then co-transformed into E. coli BL21 cells with pBirAcm expression vector in 1:1 molar ratio. Overnight culture was inoculated with a 250-fold dilution to start the actual culture. The cells were grown at 37° C. in LB medium (supplemented with 50 μg/mL of kanamycin and 10 μg/mL of chloramphenicol) with shaking speed of 225 rpm. When OD600 reached about 0.6, 5 mM of biotin in bicine buffer pH 8.3 was added to the culture to have final concentration of 125 μM of biotin. The culture was then cooled down to room temperature before the addition of 0.4 mM isopropyl-B-D-1-thiogalactopyranoside (IPTG) to induce the expression of the recombinant protein with Avi-tag. The rest of the method is identical as written in “Expression of PAC2 for crystallography”.
Biolayer interferometry. […] The association was measured for 600 s at an analyte concentration of 20 μM followed by dissociation for 300 s in the same buffer as the baseline. The raw data was analyzed using the Octet Red Data Analysis software (ver. 8.2). […]

Substance | association (co-precipitation) of SHIP1 and STAT3 (SHIP1 and STAT3) | Clover-mRuby2 FRET signal [1] | binding to PAC2 with K681A substitution (BLI) (PAC2-K681A)
IL6: pro-inflammatory cytokine IL6 | failed to induce STAT3 association with SHIP1 | not | 
PI(3,4)P2 [reference compound] |  |  | impairs
